The values that follow come from paper PMC4764080 (Cell, 2009).

Square brackets hold non-standard residues; d marks the D form. pY = N[C@@H](Cc1ccc(OP(=O)(O)O)cc1)C(=O)O

In one test the test system is PLCγ pY783. Nature of the test: Tyrosine phosphorylation of PLCγ. To be noted: L6 myoblasts stably expressing FGFR1; 100 ng/mL FGF, 5 min, 37 °C; anti-pY783 (PLCγ) immunoblot. It counts as cell-based. (A western blot detects proteins with antibodies after separation by electrophoresis.)
In test [1] the target is FGFR1-3P (trisphosphorylated cytoplasmic region of FGFR1: tyrosine kinase domain and C-terminal tail) (UniProt P11362). The test can be described thus: ITC. For orientation: ITC needs no label: the signal is the heat of the interaction.
Test [2] has the same target. The test can be described thus: SPR.
Test [3] shares this target. Nature of the test: SPR. The source holds these as a separate data set.
In test [4] the target is pY766 peptide (synthetic phosphopeptide of the C-terminal region of FGFR1, TSNQEpYLDLSM). Nature of the test: SPR. On the technique in general: Surface plasmon resonance follows binding to a sensor surface in real time, without labels.
Another test concerns the target FGFR1-3P(VV/DD) (UniProt P11362). Nature of the test: ITC.
The target in another test is FGFR1-3P(RD/VV) (UniProt P11362). The test can be described thus: ITC.
The target in test [5] is T1, isolated N-SH2 domain of PLCγ (rat).
T1 sequence (P10686 whole entry, looked up): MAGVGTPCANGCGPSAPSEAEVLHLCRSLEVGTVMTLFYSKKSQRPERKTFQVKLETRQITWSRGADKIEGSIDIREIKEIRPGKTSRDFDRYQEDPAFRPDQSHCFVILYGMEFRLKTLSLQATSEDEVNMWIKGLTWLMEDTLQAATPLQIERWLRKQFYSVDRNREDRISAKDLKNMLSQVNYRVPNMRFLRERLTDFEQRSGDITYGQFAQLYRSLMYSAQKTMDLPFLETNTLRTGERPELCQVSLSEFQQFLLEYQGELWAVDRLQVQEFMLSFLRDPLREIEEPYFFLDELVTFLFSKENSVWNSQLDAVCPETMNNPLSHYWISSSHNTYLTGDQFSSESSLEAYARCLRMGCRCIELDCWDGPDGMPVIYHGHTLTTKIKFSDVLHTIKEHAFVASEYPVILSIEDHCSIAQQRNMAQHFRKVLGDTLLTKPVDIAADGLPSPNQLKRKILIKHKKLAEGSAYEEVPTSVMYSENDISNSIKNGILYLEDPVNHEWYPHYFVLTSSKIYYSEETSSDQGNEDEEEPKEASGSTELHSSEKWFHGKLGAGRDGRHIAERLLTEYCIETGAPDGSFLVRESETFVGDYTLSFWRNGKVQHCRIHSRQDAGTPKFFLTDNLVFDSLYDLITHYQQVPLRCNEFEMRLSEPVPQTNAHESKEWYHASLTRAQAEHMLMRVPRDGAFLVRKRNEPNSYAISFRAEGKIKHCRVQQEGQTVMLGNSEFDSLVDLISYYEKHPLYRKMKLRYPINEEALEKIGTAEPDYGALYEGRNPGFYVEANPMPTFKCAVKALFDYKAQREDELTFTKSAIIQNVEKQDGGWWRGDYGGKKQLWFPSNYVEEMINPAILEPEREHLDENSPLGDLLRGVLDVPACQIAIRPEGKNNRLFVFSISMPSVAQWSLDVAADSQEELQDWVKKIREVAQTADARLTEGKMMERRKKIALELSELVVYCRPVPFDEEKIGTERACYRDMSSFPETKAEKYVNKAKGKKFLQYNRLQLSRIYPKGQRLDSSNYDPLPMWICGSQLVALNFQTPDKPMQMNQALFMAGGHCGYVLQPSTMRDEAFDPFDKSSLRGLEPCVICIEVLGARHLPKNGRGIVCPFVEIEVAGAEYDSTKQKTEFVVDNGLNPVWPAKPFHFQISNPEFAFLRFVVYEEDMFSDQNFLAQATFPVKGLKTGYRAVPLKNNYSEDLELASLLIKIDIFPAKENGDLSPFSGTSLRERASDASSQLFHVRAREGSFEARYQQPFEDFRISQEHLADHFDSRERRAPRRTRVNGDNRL
Nature of the test: ITC.

Test [6] deals with T2, isolated C-SH2 domain of PLCγ (rat).
T2 sequence (P10686 whole entry, looked up): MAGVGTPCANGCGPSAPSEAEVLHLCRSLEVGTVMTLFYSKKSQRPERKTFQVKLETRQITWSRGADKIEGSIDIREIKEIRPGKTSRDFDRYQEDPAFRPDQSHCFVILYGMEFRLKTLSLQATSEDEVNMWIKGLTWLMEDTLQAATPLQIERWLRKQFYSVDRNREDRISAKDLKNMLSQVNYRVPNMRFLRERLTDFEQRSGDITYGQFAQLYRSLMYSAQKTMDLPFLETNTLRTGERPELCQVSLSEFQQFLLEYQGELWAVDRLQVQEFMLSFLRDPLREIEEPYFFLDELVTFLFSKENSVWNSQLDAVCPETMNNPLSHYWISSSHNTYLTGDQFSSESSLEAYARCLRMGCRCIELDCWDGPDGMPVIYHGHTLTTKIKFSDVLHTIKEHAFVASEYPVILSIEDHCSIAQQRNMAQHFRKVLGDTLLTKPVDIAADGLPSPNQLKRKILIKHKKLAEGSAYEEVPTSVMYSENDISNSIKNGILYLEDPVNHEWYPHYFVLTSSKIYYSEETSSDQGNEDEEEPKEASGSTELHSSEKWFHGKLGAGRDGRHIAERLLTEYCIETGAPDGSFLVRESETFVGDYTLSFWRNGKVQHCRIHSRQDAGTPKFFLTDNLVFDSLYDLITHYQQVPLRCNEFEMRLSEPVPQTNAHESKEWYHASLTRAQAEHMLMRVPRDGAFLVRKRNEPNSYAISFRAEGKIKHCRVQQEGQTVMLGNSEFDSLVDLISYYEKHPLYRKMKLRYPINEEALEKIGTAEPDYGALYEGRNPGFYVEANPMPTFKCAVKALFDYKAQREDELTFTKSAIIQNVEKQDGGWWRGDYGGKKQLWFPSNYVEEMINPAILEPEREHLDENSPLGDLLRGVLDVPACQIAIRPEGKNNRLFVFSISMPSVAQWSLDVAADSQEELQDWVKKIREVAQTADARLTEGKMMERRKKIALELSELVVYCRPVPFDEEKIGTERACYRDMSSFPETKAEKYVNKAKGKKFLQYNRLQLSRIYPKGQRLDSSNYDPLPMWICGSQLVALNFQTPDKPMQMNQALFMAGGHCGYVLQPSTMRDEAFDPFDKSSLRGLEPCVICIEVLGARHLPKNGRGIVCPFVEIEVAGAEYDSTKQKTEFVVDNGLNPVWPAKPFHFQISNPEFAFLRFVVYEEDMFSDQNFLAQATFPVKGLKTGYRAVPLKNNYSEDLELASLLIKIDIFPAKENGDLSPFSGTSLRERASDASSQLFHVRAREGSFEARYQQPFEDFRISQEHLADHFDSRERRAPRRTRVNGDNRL
Nature of the test: ITC.

For “FGFR1(Y766F): FGFR1 mutant Y766F in the primary binding site for the N-SH2 domain, expressed in L6 myoblasts”, in the test on PLCγ pY783, the “tyrosine phosphorylation of PLCγ” value was “negligible tyrosine phosphorylation of PLCγ”.

“WT FGFR1: wild type FGFR1 stably expressed in L6 myoblasts”: the “tyrosine phosphorylation of PLCγ” value in the test with PLCγ pY783 is recorded as “tyrosine phosphorylation of PLCγ”.

As to “isolated C-SH2 domain of PLCγ (domain or fragment)”, the equilibrium dissociation constant (Kd) (commonly a measure of binding affinity in units of concentration) in test [1] is 490 nM.

For the molecule “isolated N-SH2 domain of PLCγ (domain or fragment)”, the equilibrium dissociation constant (Kd) came to 44 nM in test [2]; 142 nM in test [3]; 5670 nM in test [4]; 33 nM in test [1]; 221 nM with FGFR1-3P(VV/DD); 112 nM in the test with FGFR1-3P(RD/VV).

B1: pY766 peptide (synthetic phosphopeptide of the C-terminal region of FGFR1, TSNQEpYLDLSM) (peptide)
peptide: {biotin‑XX}-TSNQE[pY]LDLSM-NH2
As to B1, the Kd in test [5] is 433 nM; in [6], 1810 nM.
